# Experimental data as given in patent publication US20240166729A1 (RAMOT AT TEL AVIV UNIVERSITY, published 2024).
# T1: His-tagged EspB (EspB-His), recombinant EPEC EspB (enteropathogenic E. coli (EPEC) O127:H6 …, UniProt Q05129 1-321)
# T1 construct: also called recombinant EspB (full-length); full-length EspB
# T1 sequence: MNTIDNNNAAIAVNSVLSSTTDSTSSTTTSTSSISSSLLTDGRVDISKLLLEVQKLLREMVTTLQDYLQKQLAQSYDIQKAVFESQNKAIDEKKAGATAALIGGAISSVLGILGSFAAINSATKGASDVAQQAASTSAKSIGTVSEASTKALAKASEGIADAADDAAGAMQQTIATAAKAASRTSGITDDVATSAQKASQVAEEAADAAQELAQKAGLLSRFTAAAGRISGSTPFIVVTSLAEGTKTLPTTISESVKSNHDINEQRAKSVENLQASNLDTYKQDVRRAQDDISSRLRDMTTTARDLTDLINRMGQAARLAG
# T2: Salmonella EspB homolog (Salmonella enterica serovar Typhimurium, UniProt D0ZV21 1-409)
# T2 sequence: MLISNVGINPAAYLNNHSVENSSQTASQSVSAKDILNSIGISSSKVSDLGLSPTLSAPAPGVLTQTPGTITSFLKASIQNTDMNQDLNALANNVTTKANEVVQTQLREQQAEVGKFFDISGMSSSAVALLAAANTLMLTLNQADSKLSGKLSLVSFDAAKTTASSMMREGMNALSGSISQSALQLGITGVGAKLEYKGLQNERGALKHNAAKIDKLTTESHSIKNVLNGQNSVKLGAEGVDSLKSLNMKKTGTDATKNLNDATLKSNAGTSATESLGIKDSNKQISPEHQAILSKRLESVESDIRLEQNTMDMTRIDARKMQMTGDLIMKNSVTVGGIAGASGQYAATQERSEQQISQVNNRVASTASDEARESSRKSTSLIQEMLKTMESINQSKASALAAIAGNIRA
# What was measured:
# [1] = target: T1, His-tagged EspB (EspB-His), recombinant …; assay: ELISA on coated EspB, antibody in 0.1 M citric acid buffer, pH 7.4, 7.0, 6.6 and 5.6 (one reading for the bundle of four curves)
# [2] = target: T1, His-tagged EspB (EspB-His), recombinant …; assay: ELISA on coated EspB, 411 mM NaCl
# [3] = target: T1, His-tagged EspB (EspB-His), recombinant …; assay: ELISA on coated EspB, 274 mM NaCl
# [4] = target: T1, His-tagged EspB (EspB-His), recombinant …; assay: ELISA on coated EspB, 45.6, 68.5 and 137 mM NaCl (one reading for the bundle)
# [5] = target: T1, His-tagged EspB (EspB-His), recombinant …; assay: ELISA on coated EspB, antibody diluted in 3% milk in PBS or in goat or horse serum with 1% human serum (one reading for the bundle of three curves)
# [6] = target: T1, His-tagged EspB (EspB-His), recombinant …; assay: ELISA (FIG. 4A) and SPR (FIG. 4B): Biacore, EspB amine-coupled on chip, mAb 10-90 nM, steady-state fit
# Salmonella EspB homolog = target: T2, Salmonella EspB homolog; assay: western blot of bacterial supernatant with mAb-EspB-B7
# EHEC EspB = target: T3, EHEC EspB; assay: as above
# T3 construct: also called EspB of enterohemorrhagic E. coli
# [7] = target: T1, His-tagged EspB (EspB-His), recombinant …; assay: indirect ELISA, 5 ug/ml EspB coated, serial dilution of the antibody, goat anti-human H+L HRP
# [8] = target: T4, native EspB of wild-type EPEC; assay: western blot of normalized culture supernatants after SDS-PAGE, mAb-EspB-B7 as primary antibody, anti-human IgG HRP
# T4 construct: also called EPEC EspB
# C. rodentium EspB = target: T5, C. rodentium EspB (Citrobacter rodentium DBS100); assay: as above
# T5 construct: also called EspB of Citrobacter rodentium
binder,measurement,setting,value
"mAb-EspB-B7 (antibody, V domains shown, also called mAb-B7; B7 IgG1) VH: EVQLLESGGGLVQPGGSLRLSCAASGFTFSHYAMNWVRQAPGKGLEWVSAINSNGDSTYYPDTVKDRFTISRDNSKNTLYLQMNSLRAEDTAVYYCARDRRAGYFDYWGQGTLVTVSS VL: DIVLTQPPSASGTPGQRVTISCSGSRDNIGKNYVSWYQQLPGTAPKLLIYRNNQRPSGVPDRFSGSKSGTSASLAISGLRSEDEADYYCSAWDTSLNAYVFGPGTQLTVL",EC50 (read off the curve),[1],~20 nM
same,EC50 (read off the curve),[2],~10 nM
same,EC50 (read off the curve),[3],~8 nM
same,EC50 (read off the curve),[4],~3 nM
same,EC50 (read off the curve),[5],~3 nM
same,Kd,[6],17.4 nM
same,binding result,Salmonella EspB homolog,no binding
same,binding result,EHEC EspB,binds
same,EC50 (read off the curve),[7],~8 nM
same,binding result,[8],binds
same,binding result,C. rodentium EspB,binds
